Test results: paper PMC3151165 (2009)

Columns and labels:
mu opioid receptor = target: T1, mu opioid receptor (Rattus norvegicus, UniProt P33535); assay: radioligand competition
T1 chain: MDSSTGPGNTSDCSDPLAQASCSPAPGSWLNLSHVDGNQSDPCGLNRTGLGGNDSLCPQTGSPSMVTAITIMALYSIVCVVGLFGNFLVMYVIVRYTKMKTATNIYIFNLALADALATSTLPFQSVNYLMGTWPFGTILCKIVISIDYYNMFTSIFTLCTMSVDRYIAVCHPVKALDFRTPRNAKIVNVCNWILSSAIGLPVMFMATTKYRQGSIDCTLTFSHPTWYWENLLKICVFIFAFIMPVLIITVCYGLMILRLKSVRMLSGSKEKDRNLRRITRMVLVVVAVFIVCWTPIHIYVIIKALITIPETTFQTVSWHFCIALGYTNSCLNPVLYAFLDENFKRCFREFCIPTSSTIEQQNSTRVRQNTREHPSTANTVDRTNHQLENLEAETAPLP

delta opioid receptor = target: T2, delta opioid receptor (Mus musculus, UniProt P32300); assay: radioligand competition
T2 chain: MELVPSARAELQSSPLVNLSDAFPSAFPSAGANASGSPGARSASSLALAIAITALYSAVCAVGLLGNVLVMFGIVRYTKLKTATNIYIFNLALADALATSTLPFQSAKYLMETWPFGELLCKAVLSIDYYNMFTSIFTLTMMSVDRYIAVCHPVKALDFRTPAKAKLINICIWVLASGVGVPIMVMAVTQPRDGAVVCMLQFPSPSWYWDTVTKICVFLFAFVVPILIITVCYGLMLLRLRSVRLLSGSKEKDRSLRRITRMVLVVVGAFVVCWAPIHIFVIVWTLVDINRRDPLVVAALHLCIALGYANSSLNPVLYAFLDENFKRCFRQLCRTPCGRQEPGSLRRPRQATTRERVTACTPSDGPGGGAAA

YGGFARRARPK (trans -CH=CH- bridge between Ala5 and Ala8 side chains, C-terminal amide) [cyclo[Ala5(-CH=CH-)Ala8]Dyn A-(1-11)NH2 trans (6)]
Ki (mu opioid receptor): 36 nM

YAGFARRIRPK (cis -CH=CH- bridge between Ala2 and Ala5 side chains, C-terminal amide) [cyclo[Ala2(-CH=CH-)Ala5]Dyn A-(1-11)NH2 cis (1)]
Ki (delta opioid receptor): 7670 nM
Ki (mu opioid receptor): 763 nM

B1: cyclo[D-Ala2(-CH=CH-)Ala5]Dyn A-(1-11)NH2 cis (3) (peptide)
chain: YAGFARRIRPK
modifications: D-Ala2, cis -CH=CH- bridge between residues 2 and 5 side chains, C-terminal amide
Ki (delta opioid receptor): 9.3 nM
Ki (mu opioid receptor): 2.33 nM

YGGFARRARPK (cis -CH=CH- bridge between Ala5 and Ala8 side chains, C-terminal amide) [cyclo[Ala5(-CH=CH-)Ala8]Dyn A-(1-11)NH2 cis (5)]
Ki (mu opioid receptor): 93 nM

YAGFARRIRPK (trans -CH=CH- bridge between Ala2 and Ala5 side chains, C-terminal amide) [cyclo[Ala2(-CH=CH-)Ala5]Dyn A-(1-11)NH2 trans (2)]
Ki (delta opioid receptor): 1130 nM
Ki (mu opioid receptor): 180 nM
